# Measurements taken from publication PMC4499159, “Quantitative characterization of protein–protein complexes involved in base excision DNA repair”.
# B1: gap-DNA (dsDNA)
# DNA 1: GGCGATTAAGTTGGG
# DNA 2: AACGTCAGGGTCTTCC
# DNA 3: GGAAGACCCTGACGTTACCCAACTTAATCGCC
# modifications: 5'-phosphate on downstream primer
# Key:
# [1] = target: T1, DNA polymerase beta (Polβ) (rat, UniProt P06766 1-335); experiment: fluorescence titration; FAM-Polβ; n 1.3; 50 mM HEPES pH 8.0, 100 mM NaCl, 4 mM DTT (+10 mM EDTA for APE1); labelled protein from 20 nM; temperature not stated
# AP endonuclease 1 (APE1) = AP endonuclease 1 (APE1) (human, UniProt P27695 1-318); experiment: fluorescence titration; TAF-APE1; 10 mM EDTA; n 1.15; 50 mM HEPES pH 8.0, 100 mM NaCl, 4 mM DTT (+10 mM EDTA for APE1); labelled protein from 20 nM; temperature not stated; settings: protein: recombinant; tags: TAF- or FAM-labelled (terminal amino group primarily); blunt outer ends, 1-nt gap; upstream 15-mer + downstream 16-mer on 32-mer template
# [2] = target: T1, DNA polymerase beta (Polβ); experiment: fluorescence titration; TAF-Polβ; n 0.94; 50 mM HEPES pH 8.0, 100 mM NaCl, 4 mM DTT (+10 mM EDTA for APE1); labelled protein from 20 nM; temperature not stated
# XRCC1 = XRCC1 (human, UniProt P18887 1-633); experiment: fluorescence titration; TAF-XRCC1; n 0.90; 50 mM HEPES pH 8.0, 100 mM NaCl, 4 mM DTT (+10 mM EDTA for APE1); labelled protein from 20 nM; temperature not stated; settings: protein: recombinant; tags: TAF-labelled; blunt outer ends, 1-nt gap; upstream 15-mer + downstream 16-mer on 32-mer template
binder,measurement,setting,value
B1,apparent K (half saturation),[1],23 nM
same,apparent K (half saturation),AP endonuclease 1 (APE1),25 ± 3 nM
same,apparent K (half saturation),[2],30 nM
same,apparent K (half saturation),XRCC1,25 ± 4 nM
